Test results reported in ChEMBL document CHEMBL3525898, “Pharmacogenomics of gemcitabine metabolism: functional analysis of genetic variants in cytidine deaminase and deoxycytidine kinase” (Drug Metab Dispos, 2013).

Experiments:
Format in all cases: ADME
[1] = tested on: Nc1ccn([C@@H]2O[C@H](CO)[C@@H](O)C2(F)F)c(=O)n1; test: Activity of human recombinant N-terminal His-SUMO fused CDA Ala70Thr mutant expressed in Escherichia coli BL21(DE3) cells assessed as 2',2'-difluorodeoxyuridine formation by liquid chromatography-tandem mass spectrometry
[2] = tested on: Nc1ccn([C@@H]2O[C@H](CO)[C@@H](O)C2(F)F)c(=O)n1; test: Activity of human recombinant N-terminal His-SUMO fused CDA Lys27Gln mutant expressed in Escherichia coli BL21(DE3) cells assessed as 2',2'-difluorodeoxyuridine formation by liquid chromatography-tandem mass spectrometry
[3] = tested on: Nc1ccn([C@@H]2O[C@H](CO)[C@@H](O)C2(F)F)c(=O)n1; test: Activity of human recombinant N-terminal His-tagged wild type DCK expressed in Escherichia coli BL21(DE3) cells assessed as enzyme-mediated […] incubated for 1 min by liquid chromatography-tandem mass spectrometry

Chain of Deoxycytidine kinase (Homo sapiens) (chain, as listed by the source): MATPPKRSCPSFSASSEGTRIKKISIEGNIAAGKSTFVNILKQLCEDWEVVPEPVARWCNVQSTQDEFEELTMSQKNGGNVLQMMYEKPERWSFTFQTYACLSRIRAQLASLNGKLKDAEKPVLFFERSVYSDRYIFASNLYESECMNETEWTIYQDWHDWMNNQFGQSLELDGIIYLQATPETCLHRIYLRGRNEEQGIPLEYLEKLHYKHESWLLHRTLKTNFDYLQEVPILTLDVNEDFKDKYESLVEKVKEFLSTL

**Q.** With Cytidine deaminase (Homo sapiens; A70T) as the substance, how does the Km [1] read?
**A.** 610 µM

**Q.** And the Vmax [1]?
**A.** 0.151 µmol/min/mg

**Q.** Which Km [2] does the source give for Cytidine deaminase (Homo sapiens; K27Q) here?
**A.** 562 µM

**Q.** And the Vmax [2]?
**A.** 0.195 µmol/min/mg

**Q.** Deoxycytidine kinase (Homo sapiens) was tested. Which Km [3] did it give?
**A.** 2.15 µM

**Q.** What about the Vmax [3] of the same substance?
**A.** 1.06 µmol/min/mg
